Data: the DeepSol protein solubility set

Assay: soluble on expression in E. coli; label from the status in PepcDB or PDB records
With “MGSDKIHHHHHHMDWGIYMKQLPFKAVAVDVDGTFENDKKEYDHEMFGEILYRLHKHGAHFIIASGRPAGRLSDDFGDFIDSVDFVADNGAVLVRDGKIIRTTCFSKKGILHLIDYMHQRYPGSVTTLLISGVKHSYFLKSTPPEFKRSHHYFYPNSIEIDDFSQIPADDQYTKITVDYPSKVRHELEYGFNSRSMEKIHVTTSGWNYMDIIPQGVNKATGLKEFLAYLDVPRSELIAFGDGENDIEMLKLAGLSYAMENGQNSVKKIANFIAPSNNDNGVFKVLNHYLNEVNK” the “soluble on expression in E. coli” value was “not soluble”.
For “MGSDKIHHHHHHMEAKKSKAIVFSGVNQIELREVTLKPVSSTDVLVETWWSSISTGTEKMALNGLIPSPPFIFPFIPGYETVGRIVEAGDHVNQGLIGKFAYVAGSFGYEDVNAAFGGASQFIVCPVESLTVLDGIANPQCGIALPLGATALHIVDLAEVKNRKVLVLGQGAVGILAAELAKRFGASLVAVTEPHQRRLDISTSDIKVNPEKQDVSVALAGHEFDVLIDSTGIMSAIETGLRFLKFHGKVIFGGYYQRMNIDYSQAFNKELSFIAARQWAKGDLHRVRELIAAGKINAEKIFTHQCTVDDNLMEAYMQAFSDSDCLKMIIHWKHGNEAGEHFPTCNTAN”, the “soluble on expression in E. coli” value was “not soluble”.
With “MGSDKIHHHHHHMEAQDHNNEQQVTEYQVMSYLRAHPQFFEHHTGLLAELYLPSPHGQGTVSLAERQQLAQRDRIRVLDAKLAQLMKYGEENDAIGEKVHRLSLGLLATERMEVLVSLLEHSLHEDFQVPYVSLRLWAKPRESGNGSLPIFASVDQELQRWAQGLATPYCGNRPGMPLQGWFGVEARPASFAVMALKAQQVFGVLALASDDDKRFYPDMGTLYLKRISELISAALLRHIIV” the “soluble on expression in E. coli” value was “not soluble”.
For “MGSDKIHHHHHHMEGHIVITGATGVIGSEVARRLIKSGREVVVFARSPQSAAAKVPGAADYVRWDSDMAPDGWSSSIDGAYAVIHLAGRPLLETRWTEEHKVACYDSRIKGTRALVAAMASASVKPKVFVSSSAIGYYGSFDRCEETDPLTEKAAPGKDFLAKICFDWEKEARPAETLGTRVVLLRTGIVLSTKGGMLQKMMIPFSYFVGGPVGSGDQCLSWIHLDDEVSIILQALDNADWSGPVNAVAPEPVSMKAFADSLGLVMHRPSLFPVPKLAVQILLGEGADYAVKGQKVSPEFLKERDFHFAWPSLNEALADLVSRGI”, the “soluble on expression in E. coli” value was “not soluble”.
In the case of “MGSDKIHHHHHHMEHECDTLPHWLTGSPQGEAGHTPAACNSAVAAQPAYPAGTRQPEKSAHAAEASRAHDRTATGVAPTGFLTLFTEEEIGTPSPAARRAAPVISPLVRFGSAQDRIEFVRQRIRQLGFDSFSYSATRTSAHHKTMFVLTSYESRSWLTRYFRERYFELDPRVALASPTGLPFLWNTADMRADLPRAQMRSERLGGLIDMLEATGRKSGILTQMPLPEPELSASLCFNSETGNPRWMTESIVAETLMFAHMIHEFIWTHAKSVIGIAPAQQQRVTLSELQHAVLRAVVQGQRDKEIAYFLGLSPHNVDYHLRRLRQLFNVRNRVQLINVAQAYVS”, the “soluble on expression in E. coli” value is reported as “not soluble”.
For “MGSDKIHHHHHHMEIAVLGGGNGSTAAAVDLTAQGHNIRFWRRNASAQAELKARGNVITLKDFEGARPIRITMVTDDIGEAIRGAELIVCPTPATAQSDIAAAMAPHLADGQVVFLPPGSFGSWIMADIVRKAGNHADVSWAETGTLPYLTRLHGADTVAITTRATRLPTGVYPLRNAEHAHSVLARAYPAVEPAGDALSGALMNAGPIIHPPLITMNAGPIEHFDHWDIHNEGTQPAIRRVTTRLDAERMAVREALGYGAPHFPLADHYETSDWMYGNLAHDKLVDSGDWREHLVLTEHRYMREDVAVGLALLVSVADWAGVPAPTATGLLALGSAICDDDFRQSGRTLENLGLADMDRAALQTMLRDGA”, the “soluble on expression in E. coli” value was “not soluble”.
With “MGSDKIHHHHHHMEIGIIGTGNIGGTLARKLIAAGHQVRVANSKGIHGVQSFADEIGATAVDVYGAVKGADAIILSIPLPALASLPNGFFDDLPETVPLIDTSNYYPGLRDPLIPEIDDGMTESVWVSQQLSHPVIKAFNNILAWSLAELGTPKGSASRLAIAVAGDNATLKQIVMNLVDDTGFDAIDAGSLEESWRQQPSTPAYCCDYDAETMKKGLTAAVRGEAASKRDRLPELFGKLGANPTHEDIVAMNRSLNP” the “soluble on expression in E. coli” value was “not soluble”.
In the case of “MGSDKIHHHHHHMEIIAHRGFWNKESEKNTLTAIKRAIDNGYGFETDYRDNNGTIVISHNMPLGNEPTAEEIFRLYRDSGTESTLALNIKADGLQELLKDMLNTYQIKKYFLFDMSIPDTIDYILDNMNIATRHSEYEKEFPFYSQSSYVWMDCFKSEWISWGNLEEHLKSGKKVCIVSPELHRRPYKEVWNKYASFNHANLMLCTDFPMEADFFFNK”, the “soluble on expression in E. coli” value is reported as “not soluble”.
With “MGSDKIHHHHHHMEIKGKVHYVGVNDRNKALFENLWPLPYGVSYNSYLIDDEMVALVDTVDVCYFEVYLKKIRSIIGDKPINYLIINHMEPDHSGSISLIKQYYPNIVIVGNKKTFEMIEGYYGVGGERYVVGEGDFLALGHHRLRFSLIPMVHWPETMVTFDETEGILFSGDAFGCFGALNGGVVDTNINTDIYWNEMVRYYSNIVGKYGAPVQKALQKLQNLKITTVCSTHGPVWTEEIPRVVRIYDRLSRYEAEEGVVIAYGSMYGNTEEVAEAIAEELSKQGIRNIVMHNVSHTSHSFIIADVFKYKGLIVGCPTYNTQMYPEMEALLSKLASREIKGRYLGYFGSFTWASAAVKKIAEFNDKLKFEPVGNPVEMKHSMKAETNTQAKELAKAMADRLKADRK” the “soluble on expression in E. coli” value was “not soluble”.
With “MGSDKIHHHHHHMEILSVGEKIKRARIYKRLTLKDICDDKVSVSKMSCIENGKITPDNEILEFVAKKLNVALDYLKYDVKDQFQSNLDNLKDIEEGKKDEYLRYNVYYAEQYEYYDIAFQFMHELFNLYVNKNKLDIVQSLTSEYYDICRKVTDCDNRSMYNLDIGKYLLASREYRQAINYYSRVRKELKTGFSENKKRIKMLIESYYYETLSYILCEDYDNAYELEKELLELIEYVDTDNQHAKIYSVMMFLCLKKNIDQFDYYKEKIENYCDINSEIKARVMYVCALKMINDEKVEEAKGYIAKALEQFQGKIENKYIPFIVELVNEVSRRNNLERYRGICDLILDYSIGIENSVLMERCYYLKSRIFKASNDLESYEMYMNLALDLLIKSGNEDDIYTRYMEMGNMYSTLGNVKDALRYFNLAINMSNKM” the “soluble on expression in E. coli” value was “not soluble”.
In the case of “MGSDKIHHHHHHMEINKIYCMDCLEGMKQLKDKTVDVVVTSPPYNIGIKYNKYSDNLSREDYLNWIEEVVKEIKRVLKDDGSFFINVGYTAKDPWIAFDVANVIRKHFKLQNTIHWVKSIAIQKEDVGNYPNIIGDIAVGHYKPINSDRFLSIMHEYIFHFTKNGNVKLDKLAIGVPYQDKSNIKRFNRKGDLRDRGNTWFIPYETIQSKEKERPHPATFPPKLPEMCIKLHGVKKTNLVLDPFMGIGSTAIACIRLGIDYIGFEIDEYYCRVAEERIKKELLKTDGKFDNVKNKNIITLDAFI”, the “soluble on expression in E. coli” value is reported as “not soluble”.
For “MGSDKIHHHHHHMEKFDVIVVGGGPAGLSAAISAAQAGMKTAVIERGDYPGTKNVMGGVLYTEATNEVVPDFWKEAPLERPVIEQRYAFLSKDEILSAGYRDPAWGQPPYNAHTVLRVKFDRWLADQAVKAGVMIITETLVEDLLYHGDDVVGVRTGRAEGDLGAQVVILAEGANNFLACKAGLAKPLRPENMAVVVKEIIELPPEKIEDRFCLEPHEGATIELFGDSTDGMMGTSFIYTNKNSLSIGVGAMVHSMSEKGWSPNDLLENLKAKPYVKRLLQGGETKEYLAHLIPEGGYNAIPKLYRQGVMVVGDTAMFVNGLNREGSNLAMISGKIAGKVAAEAIQSGDLSAHGMSVYESRLRDSFVIKDLYKFRKLMPFIESNPHLLGQYPEILNQAARMYFTADGTPKAQVFSNIMDMMFKKRTKTGLVKDMFNAWRALK”, the “soluble on expression in E. coli” value was “not soluble”.
With “MGSDKIHHHHHHMEKLEKTVDMNIQQMINLSVLELVKLGLKYGIFKAVSKKISYIDLLNQVDVPNKPLLKKLIDHLKLLGIIEETPTHLLLNSFSYEIRFPKEEHMYLLPDWIPSFEEIYRMVDFALITPNHPHVLMDFDKDADFWDLRLSSTFHEAYRILIAKLGEIGEGSRVLDIGCGSASPAYFGKLVGEEGEYVGVDYSPALLEIAKNRTEGLPVKLKEMDASLIKPKNKYDVAIMSFVLEYIENRRSALRNALDSLESGGKLIIVDAFKDEFRNVEALEFFEGLNSAFREYPSKKYIKEVILDEGFEVKFGDYGKAILLIEKL” the “soluble on expression in E. coli” value was “not soluble”.
With “MGSDKIHHHHHHMEKSSIYGLTWTNLTEWLEAHGQKKFRATQVWDWLYRKRVKTFEEMSNVPKETIELLTANFVMNTLEEQVVQESTDGTTKYLFKLSDGNLIETVMMKQEYGLSVCVTTQVGCNIGCTFCASGLLKKSRDLTAGEIVEQIMNVQHYLDGRNLEERVSHVVVMGIGEPFDNYDNVMDFLRVINHDKGLAIGARHITVSTSGLAPRIIDFANEDFQVNLAISLHAPNNELRTSIMRINKTYSIEKLMEAIHYYVNKTNRRITFEYIMLKGVNDHKKEALELAALLGEHRHLAYVNLIPYNPVDEHIDYERSTKEDVLAFYDTLKKNGINCVIRREHGTDIDAACGQLRSKQIKRVGVRERMKQKQAAAEE” the “soluble on expression in E. coli” value was “not soluble”.
In the case of “MGSDKIHHHHHHMELKARAVGVEIIPKGKIIYYSVPNGDEYERGDLVLVLGDFGLEVGKVLIPPREVVIDEVGYELKAVIRKLTDEDLEQYRKNVEDALKAFQICKQKIKEHGLPMKLLYAKYTFDRTRLIFFFSAEGRVDFRELVRDLAKIFKTRIELRQVGVRDEMKFFGGLGLCGLPTCCSTFLREFTSVTLKHAKKQQMMINPAKISGPCRRLLCCLTYEYDFYEKELEGIPDEGSTITYEGKRYKVVNVNVFLRTVTLFSEQEGEMIKLPFDYFRKGE”, the “soluble on expression in E. coli” value is reported as “not soluble”.
For “MGSDKIHHHHHHMELKKLMEHISIIPDYRQTWKVEHKLSDILLLTICAVISGAEGWEDIEDFGETHLDFLKQYGDFENGIPVHDTIARVVSCISPAKFHECFINWMRDCHSSDDKDVIAIDGKTLRHSYDKSRRRGAIHVISAFSTMHSLVIGQIKTDEKSNEITAIPELLNMLDIKGKIITTDAMGCQKDIAEKIQKQGGDYLFAVKGTQGRLNKAFEEKFPLKELNNPEHDSYAISEKSHGREEIRLHIVCDVPDELIDFTFEWKGLKKLCVAVSFRSIIAEQKKEPEMTVRYYISSADLTAEKFATAIRNHWHVENKLHWRLDVVMNEDDCKIRRGNAAELFSGIRHIAINILTNDKVFKAGLRRKMRKAAMDRNYLASVLAGSGLS”, the “soluble on expression in E. coli” value was “not soluble”.
With “MGSDKIHHHHHHMENKPFIFGVATSGDNFTDREKETERLLLNFQHGVNTVLISPRRWGKTSLVQKACHLAQSDKLKVVYLDIFSCRSDRDFYDAFAAAILKQTSSKLDEWLENTKLFLSRISPKISIGTDPMTDFSISLEMNPQSNDVDEILQLPEKIAQKKGYNIVVCIDEFQQIAEFKDSKTFQKRLRSVWQLQKSVSYCLFGSKKHLMNELFEKKSLPFYKFGDAIYLPKIGTCDWINYICGRFEATGKQISKELAEKICQRVDNHSSYVQQLAWLVWIHTDKVATEQNFEEAYQDIIDQNTPLFEKQTESLTTYQMNFLRAILDGVHSEFTTQEILQKYKLGSSANVSIVKRALVKKELIEIEKRKVIIPDPVMKVWLKKELGGV” the “soluble on expression in E. coli” value was “not soluble”.
With “MGSDKIHHHHHHMEPQWDDMKVFLAVARESSLSGAGRVLKMDPATVGRRVARFEAALKTSLFVKSPQGYALSAAGDRLLGHAEAAELAMRAGEEALTGPSDTLSGQIRIGAPDGCANYILPQVCAAISKDNPDLDIQVVALPRVINLSRREADMAVTVSAPTAGKLLVQKITDYHLHLAATRHYLRDNHPIEKLEHLRDHRMIGYIPDMIFDRELDYLNDLGIERVSLASNSVSVQIKMLAEGSALGVVHDFSLPSHRTLRKVLKEEFSLTRSFYLVRHQGDQRSDRLNRFAEALSAGIRAEVERLEGLT” the “soluble on expression in E. coli” value was “not soluble”.
